T1: AAV8 (adeno-associated virus 8, Assembled 60-mer capsid of VP1/VP2/VP3 (nested products of one cap gene), amine-coupled to a CM5 chip; the letters give one VP1 subunit only.)
T1 construct: also called adeno-associated virus serotype 8
T1 chain: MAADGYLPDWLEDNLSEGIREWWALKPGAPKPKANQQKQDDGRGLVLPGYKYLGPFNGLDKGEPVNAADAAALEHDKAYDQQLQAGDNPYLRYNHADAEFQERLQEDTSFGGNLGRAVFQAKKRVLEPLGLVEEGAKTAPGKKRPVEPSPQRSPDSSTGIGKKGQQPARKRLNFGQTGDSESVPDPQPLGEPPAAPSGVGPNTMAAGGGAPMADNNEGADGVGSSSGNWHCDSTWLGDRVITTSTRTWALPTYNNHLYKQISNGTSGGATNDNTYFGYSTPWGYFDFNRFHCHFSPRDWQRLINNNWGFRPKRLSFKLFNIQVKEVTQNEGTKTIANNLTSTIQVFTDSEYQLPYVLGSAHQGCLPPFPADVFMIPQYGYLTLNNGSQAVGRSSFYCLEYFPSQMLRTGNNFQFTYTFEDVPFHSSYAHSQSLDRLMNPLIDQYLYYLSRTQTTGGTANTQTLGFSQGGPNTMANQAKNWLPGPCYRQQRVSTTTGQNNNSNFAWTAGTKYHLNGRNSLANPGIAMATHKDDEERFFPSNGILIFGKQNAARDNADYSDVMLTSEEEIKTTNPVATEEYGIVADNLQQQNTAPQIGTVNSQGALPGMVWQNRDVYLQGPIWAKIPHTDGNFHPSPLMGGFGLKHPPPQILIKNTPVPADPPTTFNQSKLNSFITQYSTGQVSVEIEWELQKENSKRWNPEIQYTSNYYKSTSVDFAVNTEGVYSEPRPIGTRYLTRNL

B1: A4-C1 (VHH)
chain: VQLQESGGGLVQPGGSLRLSCAASGSGFSINTMGWYRQAPGKQRELVATVTRDGSTNYADFVKGRFTISRDNAKNTVYLQMNSLRPEDTAVYYCHLDEVRESSWTTSNLWGQGTQVTVSSGGGGSGGGGSGGGGSVQLQESGGGLVQPGGSLRLSCAASGSGFSINTMGWYRQAPGKQRELVATVTRDGSTNYADFVKGRFTISRDNAKNTVYLQMNSLRPEDTAVYYCHLDEVRESSWTTSNLWGQGTQVTVSSGGGGSGGGGSGGGGSVQLQESGGGLVQPGGSLRLSCAASGSGFSINTMGWYRQAPGKQRELVATVTRDGSTNYADFVKGRFTISRDNAKNTVYLQMNSLRPEDTAVYYCHLDEVRESSWTTSNLWGQGTQVTVSS
B2: A4-C2 (VHH)
chain: VQLQESGGGLVQPGGSLRLSCAASGSAFSINTMGWYRQAPGKQRELVASVTPGGSTNYADSVKGRFTISRDNAKNTIYLQMNSLRPEDTAVYYCHLDEVRESSWTTSNLWGQGTQVTVSSGGGGSGGGGSGGGGSVQLQESGGGLVQPGGSLRLSCAASGSAFSINTMGWYRQAPGKQRELVASVTPGGSTNYADSVKGRFTISRDNAKNTIYLQMNSLRPEDTAVYYCHLDEVRESSWTTSNLWGQGTQVTVSSGGGGSGGGGSGGGGSVQLQESGGGLVQPGGSLRLSCAASGSAFSINTMGWYRQAPGKQRELVASVTPGGSTNYADSVKGRFTISRDNAKNTIYLQMNSLRPEDTAVYYCHLDEVRESSWTTSNLWGQGTQVTVSS
B3: A4-D4 (VHH)
chain: VQLQESGGGLAQAGGSLRLSCAASGRGFSINTMGWYRQAPGKQRELVAAVTRGGTTNYADSVKGRFTISRDNAKNTVYLQMNSLRPEDTAVYYCHVDEVRQSSWTTSNLWGQGTQVTVSSGGGGSGGGGSGGGGSVQLQESGGGLVQPGGSLRLSCAASGRGFSINTMGWYRQAPGKQRELVAAVTRGGTTNYADSVKGRFTISRDNAKNTVYLQMNSLRPEDTAVYYCHVDEVRQSSWTTSNLWGQGTQVTVSSGGGGSGGGGSGGGGSVQLQESGGGLAQAGGSLRLSCAASGRGFSINTMGWYRQAPGKQRELVAAVTRGGTTNYADSVKGRFTISRDNAKNTVYLQMNSLRPEDTAVYYCHVDEVRQSSWTTSNLWGQGTQVTVSSGGGGSGGGGSGGGGSVQLQESGGGLAQAGGSLRLSCAASGRGFSINTMGWYRQAPGKQRELVAAVTRGGTTNYADSVKGRFTISRDNAKNTVYLQMNSLRPEDTAVYYCHVDEVRQSSWTTSNLWGQGTQVTVSS
B4: A4-C4 (bispecific antibody)
chain: VQLQESGGGLVQAGGSLRLSCAASGSRFSINTMGWYRQAPGKQREFVATVTRGGNTNYAESVKGRFTISRDNAKNTVYLQMNSLRPEDTAVYYCHVDEVRDSSWTTSNIWGQGTQVTVSSGGGGSGGGGSGGGGSVQLQESGGGLVQAGGSLRLSCAASGSRFSINTMGWYRQAPGKQREFVATVTRGGNTNYAESVKGRFTISRDNAKNTVYLQMNSLRPEDTAVYYCHVDEVRDSSWTTSNIWGQGTQVTVSSGGGGSGGGGSGGGGSVQLQESGGGLVQPGGSLRLSCAASGSNFRINTMGWYRQAPGKQRELVATVTRGGSTNYADSVKGRFTISRDNPKDTVYLQMNSLRPEDTAVYYCHVDEVRESSWTTSNLWGQGTQVTVSS
B5: A4-C9 (bispecific antibody)
chain: VQLQESGGGLVQPGGSLRLSCAASGSNFSINTMGWYRQAPGKQRELVATVTRGGDTNYADSVKGRFTISRDNAKNTVYLQMNSLRPEDTAVYYCHVDEIRESSWTTSNLWGQGTQVTVSSGGGGSGGGGSGGGGSVQLQESGGGLVQPGGSLRLSCAASGSNFSINTMGWYRQAPGKQRELVAALTRGGSTNYADSVKGRFTISRDNAKNTVYLQMNSLRPEDTAVYYCHVDEVRESSWTTSNLWGQGTQVTVSSGGGGSGGGGSGGGGSVQLQESGGGLVQPGGSLRLSCAASGSNFRINTMGWYRQAPGKQRELVAPVTRGGSTNYADSVKGRFTISRDNAKNTVYLQMNSLRPEDTAVYYCHVDEVRESSWTTSNLWGQGTQVTVSS
B6: A4-C6 (bispecific antibody)
chain: VQLQESGGGLVQPGGSLRLSCAASGSNFRINTMGWYRQAPGKQRELVAPVTRGGSTNYADSVKGRFTISRDNAKNTVYLQMNSLRPEDTAVYYCHVDEVRESSWTTSNLWGQGTQVTVSSGGGGSGGGGSGGGGSVQLQESGGGLVQPGGSLRLSCAASGSNFSINTMGWYRQAPGKQRELVAALTRGGSTNYADSVKGRFTISRDNAKNTVYLQMNSLRPEDTAVYYCHVDEVRESSWTTSNLWGQGTQVTVSSGGGGSGGGGSGGGGSVQLQESGGGLVQPGGSLRLSCAASGSNFSINTMGWYRQAPGKQRELVATVTRGGDTNYADSVKGRFTISRDNAKNTVYLQMNSLRPEDTAVYYCHVDEIRESSWTTSNLWGQGTQVTVSS
B7: A4-C5 (bispecific antibody)
chain: VQLQESGGGLVQPGGSLRLSCAASGSNFRINTMGWYRQAPGKQRELVATVTRGGSTNYADSVKGRFTISRDNPKNTVYLQMNSLRPEDTAVYYCHVDEVRESSWTTSNLWGQGTQVTVSSGGGGSGGGGSGGGGSVQLQESGGGLVQPGGSLRLSCAASGSNFSINTMGWYRQAPGKQRELVATVTRGGDTNYADSVKGRFTISRDNAKNTVYLQMNSLRPEDTAVYYCHVDEIRESSWTTSNLWGQGTQVTVSSGGGGSGGGGSGGGGSVQLQESGGGLVQPGGSLRLSCAASGSNFRINTMGWYRQAPGKQRELVATVTRGGSTNYADSVKGRFTISRDNPKNTVYLQMNSLRPEDTAVYYCHVDEVRESSWTTSNLWGQGTQVTVSS
B8: A4-C7 (bispecific antibody)
chain: VQLQESGGGLVQPGGSLRLSCAASGSNFSINTMGWYRQAPGKQRELVATVTRGGDTNYADSVKGRFTISRDNAKNTVYLQMNSLRPEDTAVYYCHVDEIRESSWTTSNLWGQGTQVTVSSGGGGSGGGGSGGGGSVQLQESGGGLVQPGGSLRLSCAASGSNFRINTMGWYRQAPGKQRELVAPVTRGGSTNYADSVKGRFTISRDNAKNTVYLQMNSLRPEDTAVYYCHVDEVRESSWTTSNLWGQGTQVTVSSGGGGSGGGGSGGGGSVQLQESGGGLVQPGGSLRLSCAASGSSFTINTMGWYRQAPGKQRELVAAVTRGGSTNYAGSVKGRFTISRDNAKNTIYLQMNSLRPEDTAVYYCHVDEIRQSSWTTSNLWGQGTQVTVSS
B9: A4-B2 (bispecific antibody)
chain: VQLQESGGGLVQAGGSLRLSCAASGSRFSINTMGWYRQAPGKQREFVATVTRGGNTNYAESVKGRFTISRDNAKNTVYLQMNSLRPEDTAVYYCHVDEVRDSSWTTSNIWGQGTQVTVSSGGGGSGGGGSGGGGSVQLQESGGGLVQAGGSLRLSCAASGSTFSINTMGWYRQAPGKQRELVATITRGGNTNYADSVKGRFTISRDNAKNTVYLQMNSLRPEDTAVYYCHVDEVRQSSWTTSNLWGQGTQVTVSS

Experiments:
Experiment in all cases: SPR, AAV amine-coupled to CM5 chip
AAV5 = biological target: T2, AAV5 (adeno-associated virus 5, Assembled 60-mer capsid of VP1/VP2/VP3 (nested products of one cap gene), amine-coupled to a CM5 chip; the letters give one VP1 subunit only.)
T2 construct: also called adeno-associated virus serotype 5

AAV8 = biological target: T1, AAV8
AAV9 = biological target: T3, AAV9 (adeno-associated virus 9, Assembled 60-mer capsid of VP1/VP2/VP3 (nested products of one cap gene), amine-coupled to a CM5 chip; the letters give one VP1 subunit only.)
T3 construct: also called adeno-associated virus serotype 9

Row | Binder | Kd (AAV5) [nM] | koff (AAV5) [s⁻¹] | kon (AAV5) [M⁻¹ s⁻¹] | Kd (AAV8) [nM] | koff (AAV8) [s⁻¹] | kon (AAV8) [M⁻¹ s⁻¹] | Kd (AAV9) [nM] | koff (AAV9) [s⁻¹] | kon (AAV9) [M⁻¹ s⁻¹]
1 | B1 | 13.2 | 0.00138 | 104000 | 9.2 | 0.00164 | 178000 | ≤ 1.03 | ≤ 1e-05 | 9690
2 | B2 | 0.691 | 0.000134 | 194000 | 0.359 | 5e-05 | 139000 | 0.486 | 0.000125 | 257000
3 | B3 | 0.657 | 1.73e-05 | 26300 | – | – | – | – | – | –
4 | B4 | 6.72 | 0.00121 | 180000 | 2.36 | 0.00025 | 106000 | 1.87 | 0.00031 | 165000
5 | B5 | 0.777 | 5e-05 | 64300 | 1.14 | 0.00013 | 114000 | 0.669 | 0.00013 | 194000
6 | B6 | 0.785 | 0.000139 | 177000 | 2.67 | 0.00044 | 165000 | 0.55 | 2.5e-05 | 45400
7 | B7 | 7.86 | 0.0013 | 165000 | 4.97 | 0.00091 | 183000 | 1.68 | 0.0002 | 119000
8 | B8 | 0.0732 | 3.2e-05 | 437000 | 3.7 | 0.00047 | 127000 | 0.127 | 1.75e-05 | 137000
9 | B9 | 7.38 | 0.00117 | 159000 | 1.02 | 0.00014 | 138000 | 8.35 | 0.0008 | 95800
